Results on one molecule are retold here after patent US20170320947A1 (published 2017).

The target of one experiment is Human PSMA. In words: BLI (Octet).
A further experiment deals with T1, Cyno PSMA.
T1 chain: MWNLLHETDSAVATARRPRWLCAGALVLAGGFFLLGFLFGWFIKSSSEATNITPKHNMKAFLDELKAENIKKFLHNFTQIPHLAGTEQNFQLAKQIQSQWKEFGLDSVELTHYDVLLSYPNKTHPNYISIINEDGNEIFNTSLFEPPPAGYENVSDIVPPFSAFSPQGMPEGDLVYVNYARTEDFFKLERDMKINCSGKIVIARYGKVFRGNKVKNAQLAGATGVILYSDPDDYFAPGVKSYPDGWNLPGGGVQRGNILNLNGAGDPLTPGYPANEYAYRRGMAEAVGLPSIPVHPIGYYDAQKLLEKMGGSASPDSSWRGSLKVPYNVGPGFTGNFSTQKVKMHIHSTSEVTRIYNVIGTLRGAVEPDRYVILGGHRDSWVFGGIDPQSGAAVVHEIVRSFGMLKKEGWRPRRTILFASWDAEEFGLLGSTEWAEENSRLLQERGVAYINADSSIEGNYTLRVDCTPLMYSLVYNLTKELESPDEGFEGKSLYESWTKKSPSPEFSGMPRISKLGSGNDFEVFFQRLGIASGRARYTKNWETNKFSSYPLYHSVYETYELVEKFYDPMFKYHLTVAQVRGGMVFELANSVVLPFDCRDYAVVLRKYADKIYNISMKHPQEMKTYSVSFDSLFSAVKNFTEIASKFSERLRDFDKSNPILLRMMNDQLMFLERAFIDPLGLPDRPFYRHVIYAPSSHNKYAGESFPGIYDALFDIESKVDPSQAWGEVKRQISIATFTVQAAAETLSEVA
In words: BLI (Octet).

B1: XENP14484 (bispecific antibody)
heavy: EVQLVQSGAEVKKPGASVKVSCKTSGYTFTEYTIHWVRQAPGQSLEWMGNINPNNGGTTYNQKFQGRVTITVDKSTSTAYMELSSLRSEDTAVYYCAAGWNFDYWGQGTLVTVSSASTKGPSVFPLAPSSKSTSGGTAALGCLVKDYFPEPVTVSWNSGALTSGVHTFPAVLQSSGLYSLSSVVTVPSSSLGTQTYICNVNHKPSDTKVDKKVEPKSCDKTHTCPPCPAPPVAGPSVFLFPPKPKDTLMISRTPEVTCVVVDVKHEDPEVKFNWYVDGVEVHNAKTKPREEEYNSTYRVVSVLTVLHQDWLNGKEYKCKVSNKALPAPIEKTISKAKGQPREPQVYTLPPSREEMTKNQVSLTCDVSGFYPSDIAVEWESDGQPENNYKTTPPVLDSDGSFFLYSKLTVDKSRWEQGDVFSCSVMHEALHNHYTQKSLSLSPGK
scFv-Fc: not shown
light: DIVMTQSPDSLAVSLGERATLSCRASQDVGTAVDWYQQKPDQSPKLLIYWASTRHTGVPDRFTGSGSGTDFTLTISSLQAEDVAVYFCQQYNSYPLTFGAGTKVEIKRTVAAPSVFIFPPSDEQLKSGTASVVCLLNNFYPREAKVQWKVDNALQSGNSQESVTEQDSKDSTYSLSSTLTLSKADYEKHKVYACEVTHQGLSSPVTKSFNRGEC
Take B1: the figures for the Kd in the experiment with Human PSMA and in the experiment with Cyno PSMA were 0.4 nM and 0.2 nM, respectively.
